Patent publication US20130190246A1 (PURDUE RESEARCH FOUNDATION, published 2013)
Where no end group is shown, it is not given here. The star is where a group is joined. Dansyl = CN(C)c1cccc2c(S(=O)(=O)*)cccc12

Columns and labels:
[1] = target: collagen (type and supplier not stated; Examples 11 and 12); assay: fluorescence plate assay, collagen-coated wells, binding curve from the data of FIG. 4
Experimental: (§1) Binding assays were done in a 96-well high-binding plate, black with a clear bottom (Costar). Collagen was compared to untreated wells and BSA coated wells. Collagen and BSA were immobilized at 37° C. for 1 hr by incubating 90 μL/well at concentrations of 2 mg/mL in 10 mM HCl and 1×PBS, respectively. Each well was washed 3× with 1×PBS after incubating. Z-SILY was dissolved in 1×PBS at concentrations from 100 μM to 10 nM in 10-fold dilutions. Wells were incubated for 30 min at 37° C. and rinsed 3× with PBS and then filled with 90 μL of 1×PBS. Fluorescence readings were taken on an M5 Spectramax Spectrophotometer (Molecular Devices) at excitation/emission wavelengths of 335 nm/490 nm respectively.

[2] = target: collagen (type and supplier not stated; Examples 11 and 12); assay: fluorescence plate binding assay, dansyl label, collagen coated on 96-well plate
Experimental: as §1

B1: Dansyl-GRRANAALKAGELYKSILYGC (Z-SILY) (peptide)
peptide: Dansyl-GRRANAALKAGELYKSILYGC
notes: Fluorescently labelled version of SILY; also called dansyl-modified peptide SILY
B1 was tested, and the “EC50 (read off the curve)” value [1] was roughly 900 nM and the Kd [2] was 860 nM.
